B1: APBB1IP (parent)
chain: PPEPLSQVSMWDQRWQDHQPLLPI
B2: LARP4 (parent)
chain: WTVANMEEIKKLTTDPDLILEVLR

Variants of: B1
Assay: protein stability index of a GFP-peptide fusion (GPS, HEK-293T) (PSI 1-6); higher = more stable
Settings: c terminus: a fixed tail appended
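Also: lentivirally expressed fusions sorted by FACS into six bins by GFP to DsRed ratio, PSI derived from sequencing read proportions per bin multiplied by bin number.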

Protein stability index of substitutions, site by site:
L21: A 3.88; Y 3.33; Q 3.68; R 3.58; I 2.58; M 3.4; T 3.93; N 3.88; G 3.76; S 3.26; V 3.28; D 4.13; K 3.44; E 4; H 3.39; F 2.24; P 3.54; W 2.74; C 3.4
P20: I 2.77; C 2.95; W 2.33; H 3.23; S 3.37; A 2.75; M 3.03; D 3.33; T 2.84; K 2.05; Q 3.26; F 2.37; V 2.91; R 2.8; G 3.38; L 2.61; E 3.29; Y 2.33; N 3.14
H18: C 3.12; V 2.83; T 3.44; N 2.97; R 2.74; D 4.05; I 2.69; Y 3.2; Q 3.01; L 3.09; E 4.14; A 2.79; F 2.4; P 3.34; S 3.11; K 3.1; G 3.55; M 2.71; W 3.02
I24: H 3.58; M 3.24; G 4.44; A 3.26; R 3.12; Y 3.54; S 3.55; L 3.26; E 3.26; P 3.79; D 4.43; C 2.69; N 3.12; W 2.04; V 3.29; T 3.62; K 3.92; F 2.72; Q 3.93
P23: Q 2.39; N 3.23; A 2.05; H 2.05; Y 2.06; L 1.99; S 2.05; T 2.77; M 2.08; F 1.67; I 2.04; E 3.03; C 3.48; V 2.92; K 2.62; R 2.38; W 1.36
L22: T 3.74; I 2.49; R 3.54; Y 2.44; N 3.55; S 3.55; C 3.5; K 4.04; V 3.2; H 3.29; F 2.77; Q 3.68; G 3.8; M 2.58; P 3.12; D 3.89; W 2.4; A 3.4
Q19: C 2.61; L 2.83; H 2.48; I 2.47; A 3.04; M 2.72; K 2.87; Y 2.44; F 2.89; P 2.63; W 2.21; G 3.33; S 2.31; D 3.74; V 2.33; N 3; T 3.02; E 3.48; R 3
D17: W 2.79; V 2.54; T 2.57; Y 2.25

Variants of: B2
Assay: as above
Settings: c terminus: a fixed tail appended

Protein stability index of substitutions, site by site:
E8: A 1.5; C 2.25; Q 1.68; H 2.89; N 2.03; P 1.82; D 2.03; Y 2.73; M 1.47; S 1.58; G 1.56; R 2.37; T 1.7; L 3.14; F 1.7; W 1.36; V 1.4; I 1.72
V3: D 3.05; A 3.11; L 2.41; M 2.29; Q 2.62; F 2.32; S 2.21; N 2.24; T 2.18; K 2.19; R 1.24; Y 1.96; C 2.5; P 1.92; H 2.5; I 2.37; E 3.01
W1: H 2.55; C 1.88; M 2.88; I 2.25; R 2.45; E 2.75; Q 2.91; G 2.63; P 2.71; K 2.26; L 2.14; A 1.9; Y 2.01; F 2.74; N 2.49; V 2.89; D 3.04; S 2.33; T 2.32
M6: L 2.13; R 2.47; G 1.59; F 1.69; P 2.03; W 1.89; C 2.6; H 1.79; K 1.89; Y 1.73; Q 2.25; S 2.57; N 2.67; A 1.33; D 2.79; I 1.63; V 1.73; E 2.67
T2: R 2.59; W 2.11; M 1.48; H 2.67; S 2.58; Q 1.95; I 1.14; F 1.94; L 2.08; E 2.8; V 1.7; K 1.87; N 2; Y 1.05; A 1.42; P 3.13; G 2.28; D 2.12; C 2.02
A4: D 3.25; V 1.43; N 2.59; P 2.05; L 1.9; E 2.3; G 2.06; T 1.97; C 1.92; K 2.6; W 1.21; M 1.5; S 1.9; Y 1.5; R 2.45; F 1.69; H 1.93; Q 2.61
L12: A 2.17
N5: D 2.79; Q 2.39; T 1.65; S 1.66; P 1.76; L 2.55; K 2.05; R 1.16; C 2.04; W 1.76; Y 2.38; H 1.99; A 1.29; F 1.98; V 1.85; E 2.47; G 1.64
I9: A 2.38; M 2.3; L 2.16; E 2.75; H 2.65; N 1.93; K 2.5; G 2.43; Q 2.14; R 2.5; W 2.21; T 1.71; D 2.76; V 2.72; Y 2.31; S 1.85; C 2.27; P 2.49; F 1.87
K11: Q 2.58; I 2.02; H 3.42; M 1.81; F 2.85; D 3.96; E 3.99; L 2.13; T 2.95; G 2.22; N 2.81; C 2.33; A 1.7; S 2.8; V 2.29; W 2.68; Y 3.77; R 2.52; P 2.46
K10: D 2.49; V 2.07; I 1.54; T 1.71; A 2.12; Y 2.03; L 2.68; E 2.51; G 1.99; W 2.68; M 2.56; H 1.84; P 2; N 2.13; S 2.07; F 1.93; R 2.52; C 2.02; Q 2.88
E7: M 1.2; I 1.94; F 2.55; Y 2.18; H 1.59; C 1.58; N 2.56; A 1.9; R 1.44; Q 2.28; S 1.7; V 1.93; K 1.88; T 1.91; G 2.4; D 2.23

Source: the supplement of paper PMC10567573
